Reference: a protein production outcome set (Wang et al. 2014)

Assay: label from the status in PepcDB records
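Also: failed if final PepcDB status was selected cloned or expressed and not failed if soluble or beyond.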

| Sequence | protein production |
| --- | --- |
| MARLGKKSRNGAFWAKALERAHLGVWDWDLRSGDCFYSATWARMLGYEEDELANTSDLWLQLTHPDDRERALASGDRHIAGLTDAIETELRLKHKLGHWVWVLDRGGIVESGADGRPLRLMGVQTDISKQKAAEAALEQVTMRFRLALAASGTGIWHYDIATHKSYWDARTREMFGVVADADEVAADLWHSFLHPDDKEATERAHWPSPGSNGVTASQYRIVKRDGEIRHIESLVRYVAAAGAAGQILGTVRDITEDKLREQELAFAARHDALTGLWNRAAFDRLLADHIAKGVPLAVFYVDLDYFKALNDFAGHAAGDLALKSVAAGIGRCLPPSAHAARLGGDEFALLVPHCDAAQAERLAAAILAAVRSADLGLAATARRLAASIGIAIVNDRATTVADALACADDACYAAKAAGRDRFAVFSAEAATGGLNAARLAADTVDAMEDGRLKLFGQEIHRLGRPWQENRHVEVLARLVGRGGKLIPPSEFIPAAERFGIAARLDRWIIRTALSRHGAAMKSGAITLGFNLSAQTLSDPGLWDFVDSIIEETGAPHSGIGFEITETAAVTNFDAAETFVRKARERRCKVSLDDFGAGMSSFEYLRRFPVDAIKIDGSFIEHMAESRFDREIVSAISGIARSVGCTVVAEKIEQAETLGILQTMGVDFGQGFLLHRPEPLEQIVARAAGPARAAPARKAS | failed |
| MTNKVKSKRIAAIDWMRGFVMIIMVLDHVSMAYNKEHLSTDSAASYIIGSPLPAFEFFTRWISHICAPVFVFLAGTALAISVERKLSRGFDSKAIDKDILLRGAFIALLDPTITSFFSGKLIFQVLYAIGIAMMCMAFFRRLSSTQLLIIAMAWILGGELVTAQFWFAGGQEQSIIVALLIGKYSSADLSISYALVPWLSVMILGWVFGRYILDYGDGKVTISPANLLFRLGFTALAAFIAIRYFNDYGNMFLLREDNSWQQWLHVSKYPPSASFIMLELGLMAVILALMIKVEQRIGVRPNGVLLVFGQTSMMFYLVHRIFLTGTATYGGLSDFTNLTNTYIISGVLLLLLFPFCIWYRSFKVKHPDSLWLKYL | failed |
| SLLSVDMEMQIPFHDVDSMGITWHGNYLRYFEIARCKLLDELGYNYRQMQASNYAWPIIDLQIKYVKTSTFEQKITVRAELVEWENRLKINYQIRDVETGARITKGYTIQAAVDMCTQELCFVTPEVFRDKIATLFAKVE | failed |
| MKAPLVSIIIPVWNLWELTCACLDSIRAHTPGNAVEVIVVDNGSDDTTATALAPTGEGLFGARFRRIRLETNRGFAVACNLGAAKAQGTYLLLLNNDTVLSPGWLPPLLREFDDEPRTGAAGPLLVYPDSGRVQHCGIAFAPTLQTEHLYANFPATHPAVRARRTLQAITGAAMLLPTALFRQCGGFHEGYKNGCEDLELCCRIREQGLRLAVVPESLVAHHESRTPGRKEHDAANATLLNRRCSGCFGPDLHRHALRDGFAIALTPWLDTYLTLPPGREAALTREHITDFDPGRCWETLQGEPLWHGGYEMLCSILDEAGRHAESAGVRLLQAGFFPTLPGFRQLARSAALSGNDELARQAAEKMQHIGGILEDPEPLVTRARGLVRWARRAGEPAVEALYTGWLTDIGLSADDLEHHHHHH | not failed |
| MEKTVIYLLEDGYVDFVVEKIRTKMEKLLEEKDKIFVVLAGGRTPLPVYEKLAEQKFPWNRIHFFLSDERYVPLDSDQSNFRNINEVLFSRAKIPSGNVHYVDTSLPIEKACEKYEREIRSATDQFDLAILGMGPDGHVASIFDLETGNKDNLVTFTDPSGDPKVPRVTLTFRALNTSLYVLFLIRGKEKINRLTEILKDTPLPAYFVRGKEKTVWFVGK | not failed |
| MMKAYQREFIEFALEKQVLKFGEFTLKSGRKSPYFFNAGLFNTGRDLARLGRFYAAALVDSGIEFDVLFGPAYKGIPIATTTAVALADHHDVDTPYCFNRKEAKNHGEGGNLVGSKLEGRVMLVDDVITAGTAIRESMELIQANKADLAGVLVAIDRQEKGKGELSAIQEVERDFGCAVISIVSLTDLITYLEQQGNNTEHLEAVKAYRAQYGI | not failed |
| MKLSATIAIILLNWNGWRDTVDCVESCRKLDYPNFRIVIVDNGSTDGSEAILRERFPDVELIQTGANLGFAGGNNAGIRHALVRGADYVWLLNNDTVVEPGALGALVRVAESDPRVGMVGSKIVYFDDPWLLWFAGAVIDPERPHRPFHRGLHERDTGQYDRVAETGYVTGCSLLARREMMAEVGMLDDDLFLYFEDADWSARAARAGWKLLYVPDSVVRHKESVSSGGAASPRLVYYTARNRLYFVRRNFPAKLAAALCYDLFEHVLVNVKKGRFPLAVAGCRGIRDFLAGKIGPMPLEHHHHHH | not failed |
| MSLDKVLVGYWHNWKSTGKDGYKGGSSADFNLSSTQEGYNVINVSFMKTPEGQTLPTFKPYNKTDTEFRAEISKLNAEGKSVLIALGGADAHIELKKSQESDFVNEIIRLVDTYGFDGLDIDLEQAAIEAADNQTVIPSALKKVKDHYRKDGKNFMITMAPEFPYLTSSGKYAPYINNLDSYYDFINPQYYNQGGDGFWDSDLNMWISQSNDEKKEDFLYGLTQRLVTGTDGFIKIPASKFVIGLPSNNDAAATGYVKDPNAVKNALNRLKASGNEIKGLMTWSVNWDAGTNSNGEKYNNTFVNTYAPMLFNNEGHHHHHH | not failed |
| MSLALLLGYELPLTGANAAYGRVFQEAARLQLDRFNAAGGVGGRPVDILYADSRDDADQARTIARAFVDDPRVVGVLGDFSSTVSMAAGSIYGKEGMPQLSPTAAHPDYIKISPWQFRAITTPAFEGPNNAAWMIGDGFTSVAVIGVTTDWGLSSAQAFRKAFELRGGAVVVNEEVPPGNRRFDDVIDEIEDEAPQAIYLAMAYEDAAPFLRALRARGSALPVYGSSALYSPKFIDLGGPAVEGVRLATAFVLGASDPVVVEFVSAYETLYGAIPTLFAAHGYDAVGIMLAAVGRAGPEVTRESLRDALAATDRYAGVTGITRFDPETRETTKILTRLVVREGDFRVIDREGHHHHHH | not failed |
| MTNHNNSGKKKVAILIEQAVEDTEFIIPCNGLKQAGFEVVVLGSRMNEKYKGKRGRLSTQADGTTTEAIASEFDAVVIPGGMAPDKMRRNPNTVRFVQEAMEQGKLVAAVCHGPQVLIEGDLLRGKQATGFIAISKDMMNAGADYLDEALVVDGNLITSREPGDLAIFTTAILSRLGYGGKDAALPDEKDRNAEWWKLADAWGGSTKGDIVRGLNTALGGERYSLEALEKYTEKESDVEAKALFQEMITNKQRHIEYLETYLTRLGEKPSLSANIANQYAKVKTALTGSDDIYQIRSALGDIQTGIGDIGNLCAMYTDPIATAIFKEIYKDLVKYEQRLVSLYRTRTNATVQPPKPTTGAAVSM | not failed |
| MCGLAGWVDYTRKLDDEFPAIFAMTDTLALRGPDAEGIWKHRNALLGHRRLAVIDLSGGVQPMSYRFPTGQEVTLVYTGEVYNHDALRERLRRAGHEFRTRSDTEVVLHAYLQWGERCCEYLTGMFAFAVFDGRDGHLLLVRDRLGIKPLYYARHREGLLFGSEIKSILAHPEFAARLDAVGLVDLLTLSRGTSQTPFREVQELLPGHLLSWRPNSQAKLRRYWEVRRQEHADDLQSTVQRTRELVTRALGAQLHADVPVCSLLSGGLDSTALTGIAQRIAKAEHGGDINSFSVDFVGQAEQFRSDDLRPDQDQPFALLAAQYIGSRHRTVLIDNAELVCERAREEVFRAKDVPFTFGDMDTSLHLMFGEIRRHSTVAISGEGADELFGGYGWFRDPQAVAAARFPWASRVRLPAGFIDAGFNRRCDLLQYQQASYDDGLRQVEHLAGDSPEERRMREFSHLHLKRWMVLLLERKDRLSMCNGLEVRVPYTDHELVEYVYNVPWSIKSRDGEEKWLLKRACADYVPEAVLKRRKSPYPTSANLGYERFLRGSVRRLLEDAVNPVFGIVSREFLAAELEHPEGYFNTQVSRHNLETALALEGWLRLYGLS | failed |
| MSNNQQMMLNRIKVVLAEKQRTNRWLAEQMGKSENTISRWCSNKSQPSLDMLVKVAELLNVDPRQLINGKIKI | not failed |
| MFQYRFKRSFSSDPNLSDTIGDRLFDLMEATFPGLNDLAECGRKLGAPWEKASTPFIRFHDDVAITHVGVLEIPMVILGQRVTVGGIHGVATREEFRRRGYYREVMEEALEYCDQIYETLVLTTPEPEYYLPFGFRVVEEYIFH | failed |
| MQSLGSLAKNIKPNQNIVEEEHNLKCERCGNTYDYYKFSNGKEFRHGCDCSMIAAGKEAEQQRKQKYLNRIFNQSNVNASLRDATVNSYQPQNDHQVHAKSTAIEYVKGFSVDKPKSLILQGSYGTGKSHLAYAVAKAIKQQGYSVAFMHIPMLMERIKATYNRNATETTDELVQLLSSIDLLVLDDVGVENTEHTLNKLFSIVDNRVGKNNIFTTNFSDKELNQNMNWQRINSRMKQNARTVRVLGDDFRGRDAW | failed |
